From patent publication US20100004432, “APTAMER AGAINST MIDKINE AND USE THEREOF” (RIBOMIC INC., published 2010)

What was measured:
[1] = molecular target: T1, midkine (full-length) (Homo sapiens, UniProt P21741 P21741:23-143); assay: cell_activity; conditions: 500 nM; control
T1 sequence: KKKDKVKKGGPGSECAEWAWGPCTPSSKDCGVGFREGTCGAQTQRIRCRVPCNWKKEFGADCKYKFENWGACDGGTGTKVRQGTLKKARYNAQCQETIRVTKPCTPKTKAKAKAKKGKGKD

[2] = molecular target: T1, midkine (full-length); assay: cell_activity; UMR106 migration inhibition, 500 nM RNA; conditions: tags: expressed in yeast

Molecule	activity (% of SEQ 40 inhibition) [1]	activity [2]
tRNA	28	–
GGGAGAGGAGAAGAGGAAGUGCACAGGGGUUGGUGUCGGGUGCAC (ssRNA, 2'-F pyrimidines; 2'-OMe all A in 5' single-stranded part and A, G in internal loop: a(M)g(M)ggg and c(F)g(M)g(M)g) [SEQ ID NO:45-3]	–	56 % of SEQ ID NO:40
GGGAGAGGAGAAGAGGAAGUGCACAGGGGUUGGUGUCGGGUGCAC (ssRNA, 2'-F pyrimidines; 2'-OMe all A in 5' single-stranded part and A, G in end stem: gu(F)g(M)c(F)a(M)c(F) and u(F)g(M)c(F)a(M)c(F)) [SEQ ID NO:45-4]	–	100 % of SEQ ID NO:40
